According to publication PMC5101663:

Target: Acinetobacter phage AP205 SpyTag-VLP (one SpyTag per VLP subunit) (Acinetobacter phage AP205)
Assay: covalent conjugation shown by reduced SDS-PAGE with densitometry; antigen and Spy-VLP mixed at 1.5:1 molar ratio (antigen per VLP subunit), overnight at 4 °C in PBS, 0.2% Polysorbate 80, pH 7.2; covalent SpyTag/SpyCatcher bond

HIS-CSP-SpyCatcher antigen (from UniProt Q7K740 25-383)
stoichiometry N (CSP antigens per VLP): 112
